# Legend:
# [1] = molecular target: Fmut8Δ11 protein (recombinant ARFP, truncated HCV-1a F protein lacking the first 11 N-terminal amino acids) (HCV-1a) (UniProt P0C045); assay: ELISA Control 4: ARFP, no serum, secondary antibody alone; row 1/400
# [2] = molecular target: Fmut8Δ11 protein (recombinant ARFP (hepatitis C virus subtype 1a (HCV-1a)) (UniProt P0C045)); assay: ELISA Control 4: ARFP, no first antibody, secondary alone; row 1/800
# [3] = molecular target: Fmut8Δ11 protein (recombinant ARFP (hepatitis C virus subtype 1a (HCV-1a)) (UniProt P0C045)); assay: ELISA Control 4: ARFP, no first antibody, secondary alone; row 1/1600
# [4] = molecular target: Fmut8Δ11 protein (recombinant ARFP, truncated HCV-1a F protein lacking the first 11 N-terminal amino acids) (HCV-1a) (UniProt P0C045); assay: ELISA Control 4: ARFP, no serum, secondary antibody alone; row 1/100
# [5] = molecular target: Fmut8Δ11 protein (recombinant ARFP, truncated HCV-1a F protein lacking the first 11 N-terminal amino acids) (HCV-1a) (UniProt P0C045); assay: ELISA Control 4: ARFP, no serum, secondary antibody alone; row 1/800
# [6] = molecular target: Fmut8Δ11 protein (recombinant ARFP (hepatitis C virus subtype 1a (HCV-1a)) (UniProt P0C045)); assay: ELISA Control 4: ARFP, no first antibody, secondary alone; row 1/100
# [7] = molecular target: Fmut8Δ11 protein (recombinant ARFP (hepatitis C virus subtype 1a (HCV-1a)) (UniProt P0C045)); assay: ELISA Control 4: ARFP, no first antibody, secondary alone; row 1/200
# [8] = molecular target: Fmut8Δ11 protein (recombinant ARFP, truncated HCV-1a F protein lacking the first 11 N-terminal amino acids) (HCV-1a) (UniProt P0C045); assay: ELISA Control 4: ARFP, no serum, secondary antibody alone; row 1/200
# [9] = molecular target: Fmut8Δ11 protein (recombinant ARFP (hepatitis C virus subtype 1a (HCV-1a)) (UniProt P0C045)); assay: ELISA Control 4: ARFP, no first antibody, secondary alone; row 1/400
# [10] = molecular target: Fmut8Δ11 protein (recombinant ARFP, truncated HCV-1a F protein lacking the first 11 N-terminal amino acids) (HCV-1a) (UniProt P0C045); assay: ELISA Control 4: ARFP, no serum, secondary antibody alone; row 1/50
# [11] = molecular target: Fmut8Δ11 protein (recombinant ARFP (hepatitis C virus subtype 1a (HCV-1a)) (UniProt P0C045)); assay: ELISA Control 4: ARFP, no first antibody, secondary alone; row 1/50
# [12] = molecular target: Fmut8Δ11 protein (recombinant ARFP, truncated HCV-1a F protein lacking the first 11 N-terminal amino acids) (HCV-1a) (UniProt P0C045); assay: ELISA Control 4: ARFP, no serum, secondary antibody alone; row 1/1600
substance,measurement,setting,value
"AP conjugated goat anti-mouse Ig [G, A, M] (antibody)",OD410,[1],0.111
same,OD410,[2],0.109 OD410
same,OD410,[3],0.109 OD410
same,OD410,[4],0.129
same,OD410,[5],0.112
same,OD410,[6],0.127 OD410
same,OD410,[7],0.106 OD410
same,OD410,[8],0.108
same,OD410,[9],0.11 OD410
same,OD410,[10],0.131
same,OD410,[11],0.194 OD410
same,OD410,[12],0.111

# From patent US20090239794A1, “HCV F PROTEIN AND USES THEREOF” (priority 2004, published 2009)
